Laboratory results taken from patent US20240075137A1 (COMPUGEN, published 2024).
Where two headings read alike, the source gives them in different places.

How the values were obtained:
human PVRIG on cells [1] = target: T1, human PVRIG on cells (human, UniProt Q6DKI7 1-326); test: FACS, human PBMC, CD8+ T cells, 10ug/ml
T1 construct: whole, on cells; over-expressed on HEK cells or endogenous on Jurkat and CD8 T cells; also called hPVRIG; HEK hPVRIG cells
T1 sequence (looked up): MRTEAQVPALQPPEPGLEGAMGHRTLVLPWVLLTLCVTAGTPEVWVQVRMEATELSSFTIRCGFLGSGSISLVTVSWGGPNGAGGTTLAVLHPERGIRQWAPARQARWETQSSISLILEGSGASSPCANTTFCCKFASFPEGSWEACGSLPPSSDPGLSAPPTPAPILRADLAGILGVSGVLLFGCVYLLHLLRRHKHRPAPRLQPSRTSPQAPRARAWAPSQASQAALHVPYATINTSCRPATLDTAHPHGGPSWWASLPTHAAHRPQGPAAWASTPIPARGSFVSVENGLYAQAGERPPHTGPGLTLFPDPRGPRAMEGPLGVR

[2] = target: T2, cynomolgus PVRIG on cells (cynomolgus, UniProt A0A2K5WVV8 41-322); test: FACS, cyno PBMC, NK cells, 10ug/ml
T2 construct: whole, on cells; also called cPVRIG; expi cPVRIG cells
T2 sequence: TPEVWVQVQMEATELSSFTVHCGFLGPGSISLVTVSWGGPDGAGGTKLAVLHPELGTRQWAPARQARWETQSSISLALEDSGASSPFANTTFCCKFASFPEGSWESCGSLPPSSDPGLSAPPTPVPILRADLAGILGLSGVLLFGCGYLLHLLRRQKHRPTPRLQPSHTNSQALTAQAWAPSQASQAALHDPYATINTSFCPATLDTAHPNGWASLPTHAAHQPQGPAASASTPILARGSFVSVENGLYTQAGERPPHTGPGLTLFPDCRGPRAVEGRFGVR

[3] = target: T2, cynomolgus PVRIG on cells; test: FACS, expi cPVRIG over expi parental cells, 3.3ug/ml
[4] = target: T2, cynomolgus PVRIG on cells; test: FACS, cyno PBMC, CD8+ T cells, 10ug/ml
human PVRIG on cells [5] = target: T1, human PVRIG on cells; test: FACS, human PBMC, CD56 int. NK cells, 10ug/ml
human PVRIG on cells [6] = target: T1, human PVRIG on cells; test: FACS, HEK hPVRIG cells (HEK OE)
[7] = target: T3, PVRIG (FACS-based competition assay of FIGS. 7 and 15) (Homo sapiens, UniProt Q6DKI7); test: FACS-based competition assay of PVRIG blocking; format and competitor not given
T3 construct: made because the format of the assay is only described in U.S. Ser. No. 15/048,967; also called human PVRIG
T3 sequence (receptor, looked up): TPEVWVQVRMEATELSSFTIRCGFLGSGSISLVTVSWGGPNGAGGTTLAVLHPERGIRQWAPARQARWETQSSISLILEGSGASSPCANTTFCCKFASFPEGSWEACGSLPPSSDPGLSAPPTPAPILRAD

[8] = target: T2, cynomolgus PVRIG on cells; test: FACS, cyno PBMC, NK cells, 10ug/ml; remark: listed apart in the source
human PVRIG on cells [9] = target: T1, human PVRIG on cells; test: FACS, HEK hPVRIG over HEK parental cells, 3.3ug/ml
human PVRIG on cells [10] = target: T1, human PVRIG on cells; test: FACS, Jurkat cells, relative to control, 3.3ug/ml
[11] = target: T2, cynomolgus PVRIG on cells; test: FACS, cyno PBMC, CD8+ T cells, 10ug/ml; remark: listed apart in the source
human PVRIG on cells [12] = target: T1, human PVRIG on cells; test: FACS, human PBMC, CD8+ T cells, 10ug/ml; remark: listed apart in the source
[13] = target: T3, PVRIG (FACS-based competition assay of …); test: FACS-based competition assay of PVRIG blocking; format and competitor not given; remark: listed apart in the source
[14] = target: T2, cynomolgus PVRIG on cells; test: FACS, expi cPVRIG over expi parental cells, 3.3ug/ml; remark: listed apart in the source
human PVRIG on cells [15] = target: T1, human PVRIG on cells; test: FACS, human PBMC, CD56 int. NK cells, 10ug/ml; remark: listed apart in the source
human PVRIG on cells [16] = target: T1, human PVRIG on cells; test: FACS, HEK hPVRIG cells (HEK OE); remark: listed apart in the source
[17] = target: T3, PVRIG (FACS-based competition assay of …); test: FACS-based competition assay of PVRIG blocking; format and competitor not given; remark: listed apart in the source
human PVRIG on cells [18] = target: T1, human PVRIG on cells; test: FACS, Jurkat cells, relative to control, 3.3ug/ml; remark: listed apart in the source
human PVRIG on cells [19] = target: T1, human PVRIG on cells; test: FACS, HEK hPVRIG over HEK parental cells, 3.3ug/ml; remark: listed apart in the source

Row | Binder | gMFIr Human CD8+ T cells (human PVRIG on cells [1]) | gMFIr Cyno NK cells [2] | gMFIr Expi cyno OE/par [3] | gMFIr Cyno CD8+ T cells [4] | gMFIr Human CD56 int. NK (human PVRIG on cells [5]) | EC50 (human PVRIG on cells [6]) [nM] | IC50 [7] [nM] | gMFIr Cyno NK cells [8] | gMFIr HEK OE/par (human PVRIG on cells [9]) | gMFIr Jurkat (human PVRIG on cells [10]) | gMFIr Cyno CD8+ T cells [11] | gMFIr Human CD8+ T cells (human PVRIG on cells [12]) | IC50 [13] [nM] | gMFIr Expi cyno OE/par [14] | gMFIr Human CD56 int. NK (human PVRIG on cells [15]) | EC50 (human PVRIG on cells [16]) [nM] | IC50 [17] [nM] | gMFIr Jurkat (human PVRIG on cells [18]) | gMFIr HEK OE/par (human PVRIG on cells [19])
1 | CHA.7.528 (antibody, V domains shown) VH: EVQVQQSGPELVKPGASVKISCKASGYTFTKSNMHWVKQSHGKSLEWIGYIYPYNGGTGYNQNFKSKATLTVDISSSTAYMELRSLTLEDSAVYLCAREADYYGNRGQFDYWGQGTLVTVSA VL: DIQMTQSPASLSVSVGETVTITCRASDNIFSNLAWYHQKQGKSPHLLVYGATNLADGVPSRFSGSGSGTQYSLKINSLQSEDFGDYYCQHFWGTPYTFGGGTKLEIK | 3.63 | 1.21 | 12.2 | 1.18 | 3.08 | 7.31 | 28.9 | 1.21 | 44.9 | 6.17 | 1.18 | 3.63 | 28.9 | 12.2 | 3.08 |  |  |  | 
2 | CHA.7.545 (antibody, V domains shown) VH: QIQLVQSGPDLKKPGETVKISCKASGYTFTTYGMSWVKQAPGRGLKWMGWINTYSGVSTFPDDFKGRFAFSLETSASTAYLQINNLKNEDSATYFCARLGMGSTTGAGYFDVWGTGTTVTVSS VL: DIVLTQSPAIMSASPGEKVTMTCSASSSVSSWYLHWYQQKSGASPKLWIYGTSNLASGVPARFSGSGSGTSYSLTISSVEAEDAATYYCQQYRSDPYTFGSGTKLEIK | 2.82 |  | 0.91 |  | 2.54 |  | 96.1 |  |  |  |  | 2.82 |  | 0.91 | 2.54 | 0.76 | 96.1 | 6.53 | 44.3
3 | CHA.7.547 (antibody, V domains shown) VH: QIQLVQSGPDLKKPGETVKISCKASGYTFTTYGMSWVKQAPGRGLKWMGWINTYSGVSTFPDDFKGRFAFSLETSASTAYLQINNLKNEDSATYFCARLGMGSTTGAGYFDVWGTGTTVTVSS VL: ENVLTQSPAIMSASLGEKVTLSCRASSSVNYMYWYQQKSDASPKLWIYYTSNLAPGVPARFSGSGSGNSYSLTISSVEGEDAATYYCQQFTSSPWTFGGGTKLEIK | 1.13 |  | 26.6 |  | 2.21 |  | 27.9 |  |  |  |  | 1.13 |  | 26.6 | 2.21 | 14.4 | 27.9 | 1.02 | 10.9
4 | CHA.7.546 (antibody, V domains shown) VH: QIQLVQSGPELKKPGETVKISCKASGYTFTTYGMSWVKQAPGKGLKWMGWINTYSGVSTYADDFEGRFAFSLETSVSTAYLQINNLKNEDTATYFCARLGRGSTTGAGYLDVWGTGTTVTVSS VL: DIVLTQSPAIMSASPGEKVSMTCSASSSVSSWYLHWYQQKSGASPKLWIYGTSNLASGVPARFSGSGSGTSYSLTISSVEAEDAATYYCQQYHSDPYTFGSGTKLEIK | 2.95 |  | 0.85 |  | 2.75 |  | 92 |  |  |  |  | 2.95 |  | 0.85 | 2.75 | 0.61 | 92 | 6.42 | 43.1
5 | CHA.7.537 (antibody, V domains shown) VH: QVQLKESGPGLVAPSQSLSITCTVSGFSLIGHGVNWIRQPPGKGLEWLGVIWGDGNTDYNSALKSRLSISKDNSKSQVFLKMNSLQTDDTARYFCAVNSAMDYWGQGTAVTVSS VL: NIVMTQSPKSMSMSVGERVTLNCTASENVASFVSWYQQKPEQSPKLLIYGTSNRYTGVPDRFTGSGSATDFTLTISSVQAEDLGDYHCGQSYNYPFTFGSGTKLEIE | 3.41 | 1.18 | 1.55 | 1.19 | 3.9 | 2.47 | 39 | 1.18 | 36.6 | 5.53 | 1.19 | 3.41 | 39 | 1.55 | 3.9 |  |  |  | 
6 | CHA.7.543 (antibody, V domains shown) VH: QVQLKESGPGLVAPSQSLSITCTVSGFSLSGYGIKWVRQPPGKGLEWLGTIWGDGSTDYNSALKSRLSISKDNSKSQVFLKMTSLQTDDTARYYCASDSLGITFGYWGQGTLVTVSA VL: DIQMTQTTSSLSASLGDRVTISCRASQDISNYLNWYQQKPDGTVKLLIYYTSRLHSGVPSRFSGSGSGTDYSLTISNLEQEDIATYFCQQGNTLPLTFGAGTKLELK | 4.33 | 1.35 | 0.83 | 1.39 | 4.48 |  |  | 1.35 |  |  | 1.39 | 4.33 |  | 0.83 | 4.48 | 0.52 |  | 6.73 | 49.8
7 | CHA.7.530 (antibody, V domains shown) VH: QVQLQQSGAELMRPGTSVKVSCKASGYAFTNHLIEWIKQRPGQGLEWIGVINPGSDSTDYNEKFKDKATLTADKSSSTAYMQLSSLTSDDSAVYFCARSLYYNSWFVYWGQGTLVTVSA VL: DIQMTQSPASLSASVGETVTITCRASENIYSYLAWYQQKRGKSPQLLVYNAKTLVEGVPSRFSGSGSGTQFSLKINSLQPEDFGSYYCQHHYGTPYTFGGGTKLEIK | 6.47 | 1.73 | 60.8 | 1.89 | 6.04 | 0.33 | 34.6 | 1.73 | 51.1 | 8.04 | 1.89 | 6.47 | 34.6 | 60.8 | 6.04 |  |  |  | 
